Source: the supplement of paper PMC9170038

Test system: MS2 coat protein
Assay: apparent KD of MS2 coat protein; designed switch direction (-1 OFF switch, 1 ON switch): 1; higher = weaker reporter binding
Method in brief: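 Stalled E. coli RNA polymerase transcribed designed RNA switches on Illumina chips, which were then titrated with SNAP-549-labelled MS2 coat protein, doubling from 0.7 or 1.5 nM to 3 µM. Steps lasted from 0.8–1.5 h at the lowest concentration to 10–20 min at the highest. The apparent KD is each design's median over clusters of curve-fitted normalised fluorescence.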

[1] = input ligand: microRNA oligo, concentration not stated
[2] = Eterna round: R95, input ligand: FMN 200 uM
[3] = Eterna round: R95, input ligand: microRNA oligo, concentration not stated
[4] = Eterna round: R95, input ligand: none

| Sequence | apparent KD of MS2 coat protein (input ligand: FMN 200 uM) | apparent KD of MS2 coat protein [1] | apparent KD of MS2 coat protein (input ligand: none) | apparent KD of MS2 coat protein [2] | apparent KD of MS2 coat protein [3] | apparent KD of MS2 coat protein [4] |
| --- | --- | --- | --- | --- | --- | --- |
| GGUAGGUUACUACCAGACAUGAGGAUCACCCAUGUAAGUGGGAAGGAUAUGGUACCGUUUCGGUACCAGAAGGUCCUAUGUAAG [JL SSNG3 1.45] (Eterna round: R96, puzzle: Same State NG 3) | 269 nM | 88.7 nM | 936 nM |  |  |  |
| GUGUGUUGCGGGCAGGAUAUGUACUUGAGUACAUGAGGAUCACCCAUGUGCGGGUGUUUCACCCGACAGAAGGGCCUAUCGCGAC [JL-ss2-3.25 ViennaUCT mod] (puzzle: Same State 2) |  |  |  | 145 nM | 136 nM | 664 nM |
| AGUCCAGCCAGAGCUGGACAAAAGCAUGUACAUGAGGAUCACCCAUGUUCAUGUACAAGCUUUUUGCUCGUCUUAAU [Mat - hsa-mir-208a - Mod of JL - 59] (Eterna round: R96, puzzle: Sensor for hsa-mir-208a) | 620 nM | 15.3 nM | 583 nM |  |  |  |
| CUUUUUAAUGCAGGAUAUGAUCAACAUGAGGAUCACCCAUGUGGCGUUGUGAGUAAGGAGAGUGAUCAGAAGGGCAUCUCCUCA [SS-NG2-LRO07] (Eterna round: R96, puzzle: Same State NG 2) | 57.5 nM | 54.5 nM | 45.8 nM |  |  |  |
| GUACAUAUUAUAGGAUAUCACGUCGUUUAGACGUGAGAAGGAUAAUCCCACAUGAAUAUUAAUACAUGAGGAUCACCCAUGUAC [SSNG1/18-A3] (Eterna round: R96, puzzle: Same State NG 1) | 64.2 nM | 48 nM | 63.9 nM |  |  |  |
| UUGCUCGUGUGAGGAUAUGCCGCCGUUUCGGCUGCAGAAGGUACUCUUAUACAUGAGGAUCACCCAUGUCUCUGUUGUUUCGUG [salish99_SSNG1_r04_936] (Eterna round: R96, puzzle: Same State NG 1) | 97.9 nM | 65.3 nM | 98.2 nM |  |  |  |
| GGAGCCGGCACCGAGGAUAUUCAUAUUAAAACAUGAGGAUCACCCAUGUAGGCCAGAAGGCUUUGGGAGAAGGCGGAUCGGCUCG [Xeonanis - 3] (Eterna round: R96, puzzle: Same State 2) | 22.1 nM | 148 nM | 568 nM |  |  |  |
| AGCAUACAUGAGGAUCACCCAUGUCAACUUAGUCGAGGAUAUGGGCAGCCGUGAGGCGAACCAGAAGGCGAAUUGA [Mat - Same State 1 - Mod of JL - D2] (puzzle: Same State 1) |  |  |  | 18.5 nM | 28.1 nM | 26.2 nM |
| CGUAGGUAGCUGGAGGAUAUUCGAGUGGUAACAUGAGGAUCACCCAUGUGGAUAGAGGAACAUGAGGAGAAGGCUAGCUGCCUGC [JL-ss2-3.20 JL mod] (puzzle: Same State 2) |  |  |  | 11.3 nM | 26.6 nM | 30.6 nM |
| GCUCGAUGAUAGGCCUACAUGAGGAUCACCCAUGUAAGUGGGCAGGAUAUCUAAAUGCAGAAUGUAGAGAAGGGCCCGUCGAGC [SameState NG3 #54] (Eterna round: R96, puzzle: Same State NG 3) | 612 nM | 239 nM | 1460 nM |  |  |  |
| GCGCAGCCGGGUGAGGAUAUCGGUGGUAAAACAUGAGGAUCACCCAUGUCCGAAGCUCGGACUUCCGAGAAGGCGCCCAGCUGCA [Erisin] (puzzle: Same State 2) |  |  |  |  | 61.2 nM |  |
| GUGGUCAGACAUGAGGAUCACCCAUGUGGAAUAAAUAACAGACAGGAUAUUUAAUAUAGGAUAUAGAAGAAGGGUCGAUUGGUG (Eterna round: R96, puzzle: Same State NG 3) | 117 nM | 87.5 nM | 103 nM |  |  |  |
| ACAUGACAUGACAUGAGGAUCACCCAUGUGAGGAUCACCCGGGAGGAUAUAGCCCAUGUGGAUCACUAGAAGGCCCUGAGGAUC [Same State NG3 S1] (Eterna round: R96, puzzle: Same State NG 3) | 36.4 nM | 39.5 nM | 49.5 nM |  |  |  |
